From the supplement of paper PMC9732359
± gives the uncertainty stated by the source.

Experiment: protein stability index of a GFP-peptide fusion (yeast GPS) (PSI 1-4); higher = more stable; sorted into four equal gates, so the index is relative within each strain
Procedure, shortened: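 Peptides tiling yeast proteins in 17-residue segments were fused downstream of GFP, with Cherry expressed from the same plasmid. As a pooled library in yeast, mid-log cultures grown in leucine-free medium were sorted into four equal gates by GFP/Cherry fluorescence ratio. Gate plasmids were PCR-amplified and Illumina-sequenced, and barcodes linked reads to strains. Each peptide received a protein stability index equal to the sum of each gate's read frequency times its gate number.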

DLDETTQTFNGSIFTHE [YML031W/NDC1]
protein stability index (doa10∆): 2.96 ± 0.05
protein stability index (pdr5∆): 2.85 ± 0.037
protein stability index (san1∆): 2.85 ± 0.038
protein stability index (ubr1∆): 2.92 ± 0.033

WTDPNLKSSLADVLSIL [RPN1]
protein stability index (doa10∆): 2.94 ± 0.15
protein stability index (pdr5∆): 2.98 ± 0.14
protein stability index (san1∆): 2.94 ± 0.096
protein stability index (ubr1∆): 2.65 ± 0.068

MSEQQWREQLRNRDIAL [ROX3]
protein stability index (doa10∆): 2.98 ± 0.071
protein stability index (pdr5∆): 2.85 ± 0.056
protein stability index (san1∆): 3 ± 0.054
protein stability index (ubr1∆): 2.42 ± 0.048

KVSYAVKKPQKSKTSTG [SNM1]
protein stability index (doa10∆): 2.85 ± 0.1
protein stability index (pdr5∆): 3.15 ± 0.13
protein stability index (san1∆): 2.66 ± 0.12
protein stability index (ubr1∆): 3.24 ± 0.079

GIKLALDPNLITLALSS [SRB4]
protein stability index (doa10∆): 2.21 ± 0.052
protein stability index (pdr5∆): 2.91 ± 0.065
protein stability index (san1∆): 2.58 ± 0.055
protein stability index (ubr1∆): 2.63 ± 0.04

WLVVPTIYNLQHHVTDA [YML031W/NDC1]
protein stability index (doa10∆): 1.38 ± 0.03
protein stability index (pdr5∆): 1.62 ± 0.033
protein stability index (san1∆): 1.46 ± 0.05
protein stability index (ubr1∆): 1.37 ± 0.027

EYIIAAIRKAPHNSKSL [RPN3]
protein stability index (doa10∆): 2.79 ± 0.067
protein stability index (pdr5∆): 2.76 ± 0.061
protein stability index (san1∆): 2.64 ± 0.045
protein stability index (ubr1∆): 2.68 ± 0.06

NPNPSSQRAQVVTMSVK [RPC37]
protein stability index (doa10∆): 2.3 ± 0.067
protein stability index (pdr5∆): 2.83 ± 0.071
protein stability index (san1∆): 2.1 ± 0.068
protein stability index (ubr1∆): 2.42 ± 0.075

KTKAMVPPINCIFNFLQ [SME1]
protein stability index (doa10∆): 1.65 ± 0.042
protein stability index (pdr5∆): 1.65 ± 0.037
protein stability index (san1∆): 1.97 ± 0.07
protein stability index (ubr1∆): 2.12 ± 0.036

KTSLSIKVENLNDTTEK [SMC2]
protein stability index (doa10∆): 2.87 ± 0.058
protein stability index (pdr5∆): 2.97 ± 0.081
protein stability index (san1∆): 3.09 ± 0.063
protein stability index (ubr1∆): 2.89 ± 0.05

YNNKVGVAASQGSMSER [SIR2]
protein stability index (doa10∆): 1.79 ± 0.066
protein stability index (pdr5∆): 2.04 ± 0.063
protein stability index (san1∆): 2.49 ± 0.12
protein stability index (ubr1∆): 1.85 ± 0.064

RNPDIYTREFVEAIRRS [NUT2]
protein stability index (doa10∆): 2.42 ± 0.068
protein stability index (pdr5∆): 2.15 ± 0.055
protein stability index (san1∆): 2.84 ± 0.15
protein stability index (ubr1∆): 3.02 ± 0.054

TEYCVGDYVAYQLNGVA [YMR129W/POM152]
protein stability index (doa10∆): 2.83 ± 0.14
protein stability index (pdr5∆): 3.1 ± 0.13
protein stability index (san1∆): 2.1 ± 0.23
protein stability index (ubr1∆): 2.52 ± 0.066

PNTRDAESEAITVTAKQ [SWI3]
protein stability index (doa10∆): 3.08 ± 0.075
protein stability index (pdr5∆): 3.23 ± 0.056
protein stability index (san1∆): 3.17 ± 0.063
protein stability index (ubr1∆): 3.15 ± 0.05

DAKSTPLRLRLYDNFVS [RPN9]
protein stability index (doa10∆): 3.3 ± 0.083
protein stability index (pdr5∆): 3.22 ± 0.088
protein stability index (san1∆): 3.21 ± 0.063
protein stability index (ubr1∆): 2.87 ± 0.082

SLEQRQEVTKFAKANIG [RPN4]
protein stability index (doa10∆): 2.82 ± 0.15
protein stability index (pdr5∆): 2.98 ± 0.24
protein stability index (san1∆): 2.83 ± 0.11

VDPASAPNHSPEIDNLD [RRP6]
protein stability index (doa10∆): 3.1 ± 0.11
protein stability index (pdr5∆): 2.98 ± 0.074
protein stability index (san1∆): 3.25 ± 0.072
protein stability index (ubr1∆): 3.16 ± 0.059

KINRPPVSVSRIARALK [RPL18A]
protein stability index (pdr5∆): 2.06 ± 0.1
protein stability index (san1∆): 1.97 ± 0.13
protein stability index (ubr1∆): 2.66 ± 0.18

GEANKHHWEDLQKRVIE [RPN5]
protein stability index (doa10∆): 2.98 ± 0.26
protein stability index (pdr5∆): 3.4 ± 0.26
protein stability index (san1∆): 2.93 ± 0.18
protein stability index (ubr1∆): 3.81 ± 0.27

DYVNKTNSHLPAGKQVE [FAS1]
protein stability index (doa10∆): 3.16 ± 0.098
protein stability index (pdr5∆): 3.57 ± 0.24
protein stability index (san1∆): 3.08 ± 0.13
protein stability index (ubr1∆): 3.08 ± 0.11

MTVAHLIECLLSKVAAL [RPB2]
protein stability index (doa10∆): 1.97 ± 0.084
protein stability index (pdr5∆): 2.01 ± 0.074
protein stability index (san1∆): 1.84 ± 0.1
protein stability index (ubr1∆): 1.54 ± 0.054

TIFNLPKNKLVPTLEAK [FAS1]
protein stability index (doa10∆): 2.27 ± 0.059
protein stability index (pdr5∆): 2.34 ± 0.081
protein stability index (san1∆): 3.08 ± 0.051
protein stability index (ubr1∆): 3.01 ± 0.061

ATIIGIISTAIADSTHV [ECM29]
protein stability index (doa10∆): 1.74 ± 0.073
protein stability index (pdr5∆): 1.65 ± 0.061
protein stability index (san1∆): 1.95 ± 0.066
protein stability index (ubr1∆): 1.51 ± 0.04

DESNDIDMIADENGTNS [RPC37]
protein stability index (doa10∆): 2.44 ± 0.1
protein stability index (pdr5∆): 2.43 ± 0.07
protein stability index (san1∆): 2.88 ± 0.11
protein stability index (ubr1∆): 3.12 ± 0.1

MQSTSPAVKQWDLLPEP [SWI1]
protein stability index (doa10∆): 2.73 ± 0.19
protein stability index (pdr5∆): 1.5 ± 0.11
protein stability index (san1∆): 1.36 ± 0.27
protein stability index (ubr1∆): 1.07 ± 0.14

AARYDYAVAEQCPVKSA [QCR2]
protein stability index (ubr1∆): 1.88 ± 0.065

MFILSKIADLVRIPPDQ [RPC25]
protein stability index (pdr5∆): 2.69 ± 0.22

MTLEDNNVTSNPSEFTP [SSN2]
protein stability index (doa10∆): 2.75 ± 0.069
protein stability index (pdr5∆): 3.03 ± 0.067
protein stability index (san1∆): 2.92 ± 0.068
protein stability index (ubr1∆): 3.16 ± 0.064

ASIESADILCPLLESFI [IRR1]
protein stability index (doa10∆): 3.19 ± 0.14
protein stability index (pdr5∆): 2.48 ± 0.11
protein stability index (ubr1∆): 2.85 ± 0.13

NSDDFFMDNSYDIDEID [ESC2]
protein stability index (doa10∆): 2.27 ± 0.058
protein stability index (pdr5∆): 2.64 ± 0.077
protein stability index (san1∆): 2.64 ± 0.075
protein stability index (ubr1∆): 2.31 ± 0.051

EKPQFKDGETTDANGKT [RPO26]
protein stability index (doa10∆): 3.36 ± 0.076
protein stability index (pdr5∆): 3.3 ± 0.047
protein stability index (san1∆): 3.36 ± 0.059
protein stability index (ubr1∆): 3.28 ± 0.05

FSRFVDQFIRHVLRGVE [YCG1]
protein stability index (doa10∆): 3.37 ± 0.25
protein stability index (pdr5∆): 1.5 ± 0.1
protein stability index (ubr1∆): 1.72 ± 0.16

VLTAAGVERLIFYPDEY [PRE3]
protein stability index (doa10∆): 2.78 ± 0.11
protein stability index (pdr5∆): 2.94 ± 0.093
protein stability index (san1∆): 2.9 ± 0.074
protein stability index (ubr1∆): 2.95 ± 0.11

LNESDCLEACSFILSSL [YDL116W/NUP84]
protein stability index (doa10∆): 2.62 ± 0.056
protein stability index (pdr5∆): 2.58 ± 0.052
protein stability index (san1∆): 2.96 ± 0.052
protein stability index (ubr1∆): 2.65 ± 0.041

KINTRGAEDPKVLINDQ [SWI1]
protein stability index (doa10∆): 3.02 ± 0.2
protein stability index (pdr5∆): 3.34 ± 0.13
protein stability index (san1∆): 3.26 ± 0.14
protein stability index (ubr1∆): 3.11 ± 0.054

IYKRGQAGVTKASVTIV [SMC2]
protein stability index (doa10∆): 1.61 ± 0.093
protein stability index (pdr5∆): 1.73 ± 0.083
protein stability index (san1∆): 1.78 ± 0.13
protein stability index (ubr1∆): 1.16 ± 0.11

GMVSHKTARGKAALERL [RPL16A]
protein stability index (san1∆): 3.17 ± 0.13

GIDLAYNMYDAYGNWFN [PRP8]
protein stability index (doa10∆): 2.94 ± 0.049
protein stability index (pdr5∆): 3.08 ± 0.04
protein stability index (san1∆): 3.05 ± 0.058
protein stability index (ubr1∆): 3 ± 0.045

NEKLADLGLEKEFQSVD [RPC53]
protein stability index (san1∆): 2 ± 0.17

MGKKTFREWQYFKLSIT [POP8]
protein stability index (doa10∆): 1.5 ± 0.046
protein stability index (pdr5∆): 1.76 ± 0.045
protein stability index (san1∆): 1.47 ± 0.099
protein stability index (ubr1∆): 1.71 ± 0.042

SEGYQKTFSRLDALTRH [RPN4]
protein stability index (doa10∆): 1.17 ± 0.091
protein stability index (pdr5∆): 1.56 ± 0.15
protein stability index (san1∆): 1.06 ± 0.24
